The conditions of the series: Archaeoglobus fulgidus (strain ATCC 49558 / DSM 4304 / JCM 9628 / NBRC 100126 / VC-16), pH 7.5, CD, sodium phosphate 20 mM, reversible: no, whole UniProt chain shown.

Values joined by “and” are separate entries in the source; they are usually repeats but may differ in a detail not shown here. Equal values may be shown once.

B1: wild type, O28558 (protein)
chain: MLDMPIDPVYYQLAEYFDSLPKFDQFSSAREYREAINRIYEERNRQLSQHERVERVEDRTIKGRNGDIRVRVYQQKPDSPVLVYYHGGGFVICSIESHDALCRRIARLSNSTVVSVDYRLAPEHKFPAAVYDCYDATKWVAENAEELRIDPSKIFVGGDSAGGNLAAAVSIMARDSGEDFIKHQILIYPVVNFVAPTPSLLEFGEGLWILDQKIMSWFSEQYFSREEDKFNPLASVIFADLENLPPALIITAEYDPLRDEGEVFGQMLRRAGVEASIVRYRGVLHGFINYYPVLKAARDAINQIAALLVFD
As for B1, under “20 °C, Urea”, the denaturant m value came out at 1.65 kcal/mol/M, the “denaturant midpoint (higher = more stable)” value turned out to be 7.1 M and the unfolding free energy turned out to be 49 kJ/mol. The “unfolding enthalpy (van 't Hoff)” value (Thermal) is 430 kJ/mol and 400 kJ/mol and 380 kJ/mol.

The values above are taken from FireProtDB (doi:10.1021/bi011146t).
